Measured values taken from US20230106247A1 (L AND L BIO CO LTD NINGBO CHINA, published 2023).

Legend:
[1] = biological target: T1, human Sirpα-V1-his (human, UniProt P78324 31-373); assay: blocking ELISA, competitor CD47-hFc
T1 construct: range 31-373; Bought (Sino Biological 11612-H08H) or expressed in-house; also called hSirpα-V1; hSirpα-V1-his
Method: (§1) The recombinant proteins such as human Sirpα-V1-hFc/Sirpα-V1-his were diluted to concentrations of 5 μg/mL or 2 μg/mL respectively with a PBS buffer at pH 7.4, and then added into a 96-well ELISA plate (Corning, CLS3590-100EA) at a volume of 50 μL/well, and placed in an incubator at 37° C. for 2 hours. After the liquid was discarded, the wells were added with a blocking solution of 5% skimmed milk (skimmed milk powder available from Bright Dairy) diluted with PBS at 230 μL/well, and incubated in an incubator at 37° C. for 3 hours, or placed overnight at 4° C. (for 16-18 hours) for blocking. […] The plate was washed for 5 times, added with 50 μL/well of streptavidin-HRP (GenScript, M00091) or anti-his-HRP secondary antibody (GenScript, A00612) diluted at 1:1000, incubated at 37° C. for 1 hour, and then washed with PBST for 5 times. Each well was added with 50 μL of TMB (Surmodic, Cat #: TTMB-1000-01) for color development, and added with 50 μL/well of 1 M H₂SO₄ to stop the reaction. The readings on a microplate reader (MultiskanGO Thermo, Model 51119200) were subjected to data analysis by GraphPad prism 5.

[2] = biological target: T1, human Sirpα-V1-his; assay: ELISA
[3] = biological target: T2, human Sirpα-V1-hFc (human, UniProt P78324 31-373); assay: blocking ELISA, competitor CD47-his
T2 construct: range 31-373; also called hSirpα (dimer); hSirpα-V1-hFc (dimer); not shown: human IgG1 Fc region at the C-terminus
Method: as §1

Binder	IC50 [1] [nM]	EC50 [2] [nM]	IC50 [3] [nM]
humanized antibody mab14-h14 (antibody, human IgG4 S228P, kappa, V domains shown, hIgG4, κ) VH: QVQLVQSGAEVKKPGASVKVSCKASGYNFNIYWINWVRQAPGQGLEWIGNIYPSSISTNYNEKFKTRATLTVDKSTSTVYMELSSLRSEDTAVYYCARSEGTYYGGRYEGDWFGYWGQGTLVTVSS VL: DIQMTQSPSSLSASVGDRVTITCRASQDIRNYLNWYQQKPGGTPKLLIYFTSTLHSGVPSRFSGSGSGTDYTLTISSLQPEDFATYYCQQGNTLPWTFGGGTKVEIKR	9.1	0.057	4.75
humanized antibody mab14-h1 (antibody, human IgG4 S228P, kappa, V domains shown, hIgG4, κ) VH: QVQLVQSGAEVKKPGASVKVSCKASGYNFNIYWINWVRQAPGQGLEWMGNIYPSSISTNYNEKFKTRVTMTRDTSTSTVYMELSSLRSEDTAVYYCARSEGTYYGGRYEGDWFGYWGQGTLVTVSS VL: DIQMTQSPSSLSASVGDRVTITCRASQDIRNYLNWYQQKPGKAPKLLIYFTSTLHSGVPSRFSGSGSGTDFTLTISSLQPEDFATYYCQQGNTLPWTFGGGTKVEIKR		0.148	
humanized antibody mab14-h2 (antibody, human IgG4 S228P, kappa, V domains shown, hIgG4, κ) VH: QVQLVQSGAEVKKPGASVKVSCKASGYNFNIYWINWVKQAPGQGLEWIGNIYPSSISTNYNEKFKTKATLTVDKSTSTVYMEFSSLRSEDTAVYYCARSEGTYYGGRYEGDWFGYWGQGTLVTVSS VL: DIQMTQSPSSLSASVGDRVTITCRASQDIRNYLNWYQQKPGGTVKLLIYFTSTLHSGVPSRFSGSGSGTDYTLTISSLQPEDFATYYCQQGNTLPWTFGGGTKVEIKR		0.073	
humanized antibody mab14-h3 (antibody, human IgG4 S228P, kappa, V domains shown, hIgG4, κ) VH: QVQLVQSGAEVKKPGASVKVSCKASGYNFNIYWINWVRQAPGQGLEWMGNIYPSSISTNYNEKFKTRATLTVDTSTSTVYMELSSLRSEDTAVYYCARSEGTYYGGRYEGDWFGYWGQGTLVTVSS VL: DIQMTQSPSSLSASVGDRVTITCRASQDIRNYLNWYQQKPGGTVKLLIYFTSTLHSGVPSRFSGSGSGTDYTLTISSLQPEDFATYYCQQGNTLPWTFGGGTKVEIKR		0.103	
humanized antibody mab14-h4 (antibody, human IgG4 S228P, kappa, V domains shown, hIgG4, κ) VH: QVQLVQSGAEVKKPGASVKVSCKASGYNFNIYWINWVRQAPGQGLEWIGNIYPSSISTNYNEKFKTRATLTVDTSTSTVYMELSSLRSEDTAVYYCARSEGTYYGGRYEGDWFGYWGQGTLVTVSS VL: DIQMTQSPSSLSASVGDRVTITCRASQDIRNYLNWYQQKPGGTVKLLIYFTSTLHSGVPSRFSGSGSGTDYTLTISSLQPEDFATYYCQQGNTLPWTFGGGTKVEIKR		0.088	
humanized antibody mab14-h5 (antibody, human IgG4 S228P, kappa, V domains shown, hIgG4, κ) VH: QVQLVQSGAEVKKPGASVKVSCKASGYNFNIYWINWVRQAPGQGLEWIGNIYPSSISTNYNEKFKTRATLTVDKSTSTVYMELSSLRSEDTAVYYCARSEGTYYGGRYEGDWFGYWGQGTLVTVSS VL: DIQMTQSPSSLSASVGDRVTITCRASQDIRNYLNWYQQKPGGTVKLLIYFTSTLHSGVPSRFSGSGSGTDYTLTISSLQPEDFATYYCQQGNTLPWTFGGGTKVEIKR	8.47	0.061	8.99
humanized antibody mab14-h6 (antibody, human IgG4 S228P, kappa, V domains shown, hIgG4, κ) VH: QVQLVQSGAEVKKPGASVKVSCKASGYNFNIYWINWVKQAPGQGLEWIGNIYPSSISTNYNEKFKTRATLTVDTSTSTVYMELSSLRSEDTAVYYCARSEGTYYGGRYEGDWFGYWGQGTLVTVSS VL: DIQMTQSPSSLSASVGDRVTITCRASQDIRNYLNWYQQKPGGTVKLLIYFTSTLHSGVPSRFSGSGSGTDYTLTISSLQPEDFATYYCQQGNTLPWTFGGGTKVEIKR		0.095	
humanized antibody mab14-h7 (antibody, human IgG4 S228P, kappa, V domains shown, hIgG4, κ) VH: QVQLVQSGAEVKKPGASVKVSCKASGYNFNIYWINWVKQAPGQGLEWIGNIYPSSISTNYNEKFKTKATLTVDTSTSTVYMELSSLRSEDTAVYYCARSEGTYYGGRYEGDWFGYWGQGTLVTVSS VL: DIQMTQSPSSLSASVGDRVTITCRASQDIRNYLNWYQQKPGGTVKLLIYFTSTLHSGVPSRFSGSGSGTDYTLTISSLQPEDFATYYCQQGNTLPWTFGGGTKVEIKR		0.081	
humanized antibody mab14-h8 (antibody, human IgG4 S228P, kappa, V domains shown, hIgG4, κ) VH: QVQLVQSGAEVKKPGASVKVSCKASGYNFNIYWINWVKQAPGQGLEWIGNIYPSSISTNYNEKFKTKATLTVDKSTSTVYMEFSSLRSEDTAVYYCARSEGTYYGGRYEGDWFGYWGQGTLVTVSS VL: DIQMTQSPSSLSASVGDRVTITCRASQDIRNYLNWYQQKPGGTPKLLIYFTSTLHSGVPSRFSGSGSGTDFTLTISSLQPEDFATYYCQQGNTLPWTFGGGTKVEIKR		0.067	
humanized antibody mab14-h9 (antibody, human IgG4 S228P, kappa, V domains shown, hIgG4, κ) VH: QVQLVQSGAEVKKPGASVKVSCKASGYNFNIYWINWVKQAPGQGLEWIGNIYPSSISTNYNEKFKTKATLTVDKSTSTVYMEFSSLRSEDTAVYYCARSEGTYYGGRYEGDWFGYWGQGTLVTVSS VL: DIQMTQSPSSLSASVGDRVTITCRASQDIRNYLNWYQQKPGGAPKLLIYFTSTLHSGVPSRFSGSGSGTDYTLTISSLQPEDFATYYCQQGNTLPWTFGGGTKVEIKR		0.062	
humanized antibody mab14-h10 (antibody, human IgG4 S228P, kappa, V domains shown, hIgG4, κ) VH: QVQLVQSGAEVKKPGASVKVSCKASGYNFNIYWINWVKQAPGQGLEWIGNIYPSSISTNYNEKFKTKATLTVDKSTSTVYMEFSSLRSEDTAVYYCARSEGTYYGGRYEGDWFGYWGQGTLVTVSS VL: DIQMTQSPSSLSASVGDRVTITCRASQDIRNYLNWYQQKPGGTPKLLIYFTSTLHSGVPSRFSGSGSGTDYTLTISSLQPEDFATYYCQQGNTLPWTFGGGTKVEIKR		0.068	
humanized antibody mab14-h11 (antibody, human IgG4 S228P, kappa, V domains shown, hIgG4, κ) VH: QVQLVQSGAEVKKPGASVKVSCKASGYNFNIYWINWVKQAPGQGLEWIGNIYPSSISTNYNEKFKTKATLTVDKSTSTVYMEFSSLRSEDTAVYYCARSEGTYYGGRYEGDWFGYWGQGTLVTVSS VL: DIQMTQSPSSLSASVGDRVTITCRASQDIRNYLNWYQQKPGKTPKLLIYFTSTLHSGVPSRFSGSGSGTDYTLTISSLQPEDFATYYCQQGNTLPWTFGGGTKVEIKR		0.073	
humanized antibody mab14-h12 (antibody, human IgG4 S228P, kappa, V domains shown, hIgG4, κ) VH: QVQLVQSGAEVKKPGASVKVSCKASGYNFNIYWINWVRQAPGQGLEWIGNIYPSSISTNYNEKFKTRATLTVDKSTSTVYMELSSLRSEDTAVYYCARSEGTYYGGRYEGDWFGYWGQGTLVTVSS VL: DIQMTQSPSSLSASVGDRVTITCRASQDIRNYLNWYQQKPGGTPKLLIYFTSTLHSGVPSRFSGSGSGTDFTLTISSLQPEDFATYYCQQGNTLPWTFGGGTKVEIKR	8.08	0.092	3.49
humanized antibody mab14-h13 (antibody, human IgG4 S228P, kappa, V domains shown, hIgG4, κ) VH: QVQLVQSGAEVKKPGASVKVSCKASGYNFNIYWINWVRQAPGQGLEWIGNIYPSSISTNYNEKFKTRATLTVDKSTSTVYMELSSLRSEDTAVYYCARSEGTYYGGRYEGDWFGYWGQGTLVTVSS VL: DIQMTQSPSSLSASVGDRVTITCRASQDIRNYLNWYQQKPGGAPKLLIYFTSTLHSGVPSRFSGSGSGTDYTLTISSLQPEDFATYYCQQGNTLPWTFGGGTKVEIKR	9.56	0.089	5.31
humanized antibody mab14-h15 (antibody, human IgG4 S228P, kappa, V domains shown, hIgG4, κ) VH: QVQLVQSGAEVKKPGASVKVSCKASGYNFNIYWINWVRQAPGQGLEWIGNIYPSSISTNYNEKFKTRATLTVDKSTSTVYMELSSLRSEDTAVYYCARSEGTYYGGRYEGDWFGYWGQGTLVTVSS VL: DIQMTQSPSSLSASVGDRVTITCRASQDIRNYLNWYQQKPGKTPKLLIYFTSTLHSGVPSRFSGSGSGTDYTLTISSLQPEDFATYYCQQGNTLPWTFGGGTKVEIKR	7.37	0.077	5.13
